Data: article PMC3526283, “DNA-binding determinants promoting NHEJ by human Polµ”

Key:
Polµ-ΔBRCT [1] = target: T1, Polµ-ΔBRCT (Homo sapiens, UniProt Q9NP87 138-494); test: EMSA; 5'-P assignment inferred: binding undetectable without it; EMSA: 50 mM Tris-HCl pH 7.5, 0.1 mg/ml BSA, 1 mM DTT, 4% glycerol, 5 nM DNA, 10 min at 30°C; footprinting: same buffer, 30 nM DNA, 37°C (2.5 mM MgCl2 and 100 µM dNTP where stated); settings: protein: recombinant; tags: pRSETA construct; label: 32P; 3' overhang 2 nt (text says 3 nt), other end blunt
T1 sequence (Q9NP87 138-494, stated change not applied): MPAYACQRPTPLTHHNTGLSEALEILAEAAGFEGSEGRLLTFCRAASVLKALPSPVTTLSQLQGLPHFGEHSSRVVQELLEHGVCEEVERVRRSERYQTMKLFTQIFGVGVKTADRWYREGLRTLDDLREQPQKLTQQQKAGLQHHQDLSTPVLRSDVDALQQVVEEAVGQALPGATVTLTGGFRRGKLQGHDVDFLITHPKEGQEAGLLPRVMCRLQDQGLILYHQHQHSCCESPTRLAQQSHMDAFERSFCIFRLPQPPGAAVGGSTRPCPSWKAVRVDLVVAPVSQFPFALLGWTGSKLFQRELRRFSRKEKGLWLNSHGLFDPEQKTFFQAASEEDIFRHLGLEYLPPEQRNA

DNA polymerase mu (Polµ) [2] = target: T2, DNA polymerase mu (Polµ) (Homo sapiens, UniProt Q9NP87 1-494); test: EMSA; EMSA: 50 mM Tris-HCl pH 7.5, 0.1 mg/ml BSA, 1 mM DTT, 4% glycerol, 5 nM DNA, 10 min at 30°C; footprinting: same buffer, 30 nM DNA, 37°C (2.5 mM MgCl2 and 100 µM dNTP where stated); settings: protein: recombinant, tags: pRSETA-hPolµ construct
T2 sequence (Q9NP87 whole entry): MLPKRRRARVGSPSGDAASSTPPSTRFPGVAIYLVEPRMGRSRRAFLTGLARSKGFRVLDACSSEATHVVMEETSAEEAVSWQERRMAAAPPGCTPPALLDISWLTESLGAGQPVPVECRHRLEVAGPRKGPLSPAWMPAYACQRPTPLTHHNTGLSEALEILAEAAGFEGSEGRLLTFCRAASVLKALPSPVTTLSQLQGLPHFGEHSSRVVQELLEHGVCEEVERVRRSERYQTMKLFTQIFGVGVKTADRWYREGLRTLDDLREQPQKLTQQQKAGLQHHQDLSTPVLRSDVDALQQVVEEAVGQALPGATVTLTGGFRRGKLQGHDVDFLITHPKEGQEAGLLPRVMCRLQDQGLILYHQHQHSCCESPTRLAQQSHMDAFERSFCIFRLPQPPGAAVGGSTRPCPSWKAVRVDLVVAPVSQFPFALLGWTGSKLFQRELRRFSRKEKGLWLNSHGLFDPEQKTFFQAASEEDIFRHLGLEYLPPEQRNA

[3] = target: T3, DNA polymerase beta (Polβ) (Homo sapiens, UniProt P06746 1-335); test: EMSA; 100 nM protein; EMSA: 50 mM Tris-HCl pH 7.5, 0.1 mg/ml BSA, 1 mM DTT, 4% glycerol, 5 nM DNA, 10 min at 30°C; footprinting: same buffer, 30 nM DNA, 37°C (2.5 mM MgCl2 and 100 µM)
[4] = target: T3, DNA polymerase beta (Polβ); test: DNase I footprinting; 100 µM dTTP, 2.5 mM MgCl2; protects positions 36-45; EMSA: 50 mM Tris-HCl pH 7.5, 0.1 mg/ml BSA, 1 mM DTT, 4% glycerol, 5 nM DNA, 10 min at 30°C; footprinting: same buffer, 30 nM DNA, 37°C (2.5 mM MgCl2 and 100 µM)
Polµ-ΔBRCT [5] = target: T1, Polµ-ΔBRCT; test: DNase I footprinting; protects 10 nt, no downstream extension; EMSA: 50 mM Tris-HCl pH 7.5, 0.1 mg/ml BSA, 1 mM DTT, 4% glycerol, 5 nM DNA, 10 min at 30°C; footprinting: same buffer, 30 nM DNA, 37°C (2.5 mM MgCl2 and 100 µM dNTP where stated); settings: protein: recombinant; tags: pRSETA construct; label: 32P at 5' end of FP-T; 1-nt gap, three strands; template FP-T, primer FP-P, downstream FP-D; otherwise blunt
Polµ R387A = Polµ R387A (Homo sapiens, UniProt Q9NP87 1-494, R387A); test: DNase I footprinting; footprint expands to primer side with dTTP; downstream extension only partly recovered with dTTP; EMSA: 50 mM Tris-HCl pH 7.5, 0.1 mg/ml BSA, 1 mM DTT, 4% glycerol, 5 nM DNA, 10 min at 30°C; footprinting: same buffer, 30 nM DNA, 37°C (2.5 mM MgCl2 and 100 µM dNTP where stated); settings: protein: recombinant, label: 32P at 5' end of FP-T, 1-nt gap, three strands, template FP-T, downstream FP-D, otherwise blunt
Chain of Polµ R387A (Q9NP87 whole entry R387A): as the sequence (Q9NP87 whole entry) above, with R387A counted along it

DNA polymerase mu (Polµ) [6] = target: T2, DNA polymerase mu (Polµ); test: DNase I footprinting; 100 µM dTTP, 2.5 mM MgCl2; protects positions 36-52; EMSA: 50 mM Tris-HCl pH 7.5, 0.1 mg/ml BSA, 1 mM DTT, 4% glycerol, 5 nM DNA, 10 min at 30°C; footprinting: same buffer, 30 nM DNA, 37°C (2.5 mM MgCl2 and 100 µM dNTP where stated); settings: protein: recombinant; tags: pRSETA-hPolµ construct; label: 32P at 5' end of FP-T; 1-nt gap, three strands; template FP-T, primer FP-P, downstream FP-D; otherwise blunt
Polµ H329G = Polµ H329G (Homo sapiens, UniProt Q9NP87 1-494, H329G); test: DNase I footprinting; with/without dATP or dTTP; no expansion with nucleotide, no downstream BRCT extension; EMSA: 50 mM Tris-HCl pH 7.5, 0.1 mg/ml BSA, 1 mM DTT, 4% glycerol, 5 nM DNA, 10 min at 30°C; footprinting: same buffer, 30 nM DNA, 37°C (2.5 mM MgCl2 and 100 µM dNTP where stated); settings: protein: recombinant; label: 32P at 5' end of FP-T; 1-nt gap, three strands; template FP-T, primer FP-P, downstream FP-D; otherwise blunt
Chain of Polµ H329G (Q9NP87 whole entry H329G): as the sequence (Q9NP87 whole entry) above, with H329G counted along it

Polµ-ΔBRCT [7] = target: T1, Polµ-ΔBRCT; test: EMSA; 300 and 600 nM protein; EMSA: 50 mM Tris-HCl pH 7.5, 0.1 mg/ml BSA, 1 mM DTT, 4% glycerol, 5 nM DNA, 10 min at 30°C; footprinting: same buffer, 30 nM DNA, 37°C (2.5 mM MgCl2 and 100 µM dNTP where stated); settings: protein: recombinant; tags: pRSETA construct; label: 32P; 3' overhang 2 nt (text says 3 nt), other end blunt
[8] = label: 32P, 3' overhang 2 nt (text says 3 nt), other end blunt
[9] = label: 32P at 5' end of Sp1C, 1-nt gap, three strands, otherwise blunt

B1: 3'-protruding end GT/NHEJ-D, 5'-P (dsDNA)
DNA 1: CCCTCCCTCCCGT
DNA 2: GGGAGGGAGGG
modifications: 5'-phosphate on NHEJ-D (S15)
Q: For B1, which Kd (Polµ-ΔBRCT [1]) is on record?
A: Its Kd is 2000 nM.

Q: What about the Kd (DNA polymerase mu (Polµ) [2]; [8]) of the same binder?
A: The Kd was 165 nM.

B2: 1-nt gap Sp1C/T28/D12, 5'-P (dsDNA)
DNA 1: AGAAGTGTATCTCGTACTCACTGTGATC
DNA 2: GATCACAGTGAGTAC
DNA 3: AGATACACTTCT
modifications: 5'-phosphate on D12 (S3)
Q: B2 was tested. Which Kd (DNA polymerase mu (Polµ) [2]; [9]) did it give?
A: Its Kd is 100 nM.

Q: Does B2 bind [3]?
A: Result: binds

B3: footprint 1-nt gap FP-T/FP-P/FP-D, 5'-P (dsDNA)
DNA 1: GGCAGCTTGGATCTTGTCGAAAAACGTCAACATTCGCCTAGGCTTCGGCAATACTGAGGTCTTGTCGAAAAACGTCAACATTGCGTGGCC
DNA 2: GGCCACGCAATGTTGACGTTTTTCGACAAGACCTCAGTAT
DNA 3: GCCGAAGCCTAGGCGAATGTTGACGTTTTTCGACAAGATCCAAGCTGCC
modifications: 5'-phosphate on FP-D (S10)
Q: Does B3 bind [4]?
A: Result: binds

Q: Does B3 bind (Polµ-ΔBRCT [5])?
A: Result: binds

Q: Does B3 bind (Polµ R387A)?
A: Result: binds

Q: Does B3 bind (DNA polymerase mu (Polµ) [6])?
A: Result: binds

Q: Does B3 bind (Polµ H329G)?
A: Result: binds

B4: 1-nt gap Sp1C/T28/D12, 5'-OH (dsDNA)
DNA 1: AGAAGTGTATCTCGTACTCACTGTGATC
DNA 2: GATCACAGTGAGTAC
DNA 3: AGATACACTTCT
Q: With B4 as the binder, how does the Kd (DNA polymerase mu (Polµ) [2]; [9]) read?
A: Its Kd is 500 nM.

B5: 3'-protruding end GT/NHEJ-D, 5'-OH (dsDNA)
DNA 1: CCCTCCCTCCCGT
DNA 2: GGGAGGGAGGG
Q: How did the Kd (DNA polymerase mu (Polµ) [2]; [8]) turn out when B5 was run?
A: Its Kd is 400 nM.

Q: Does B5 bind (Polµ-ΔBRCT [7])?
A: Result: no binding
